Data as given in patent publication US20220074941A1, “HSP90 COMBINATION THERAPY” (Sloan-Kettering Institute for Cancer Research, priority 2011, published 2022).

B1: NOB1 (protein, UniProt Q9ULX3 2-412, looked up)
RNA-binding protein NOB1: APVEHVVADAGAFLRHAALQDIGKNIYTIREVVTEIRDKATRRRLAVLPYELRFKEPLPEYVRLVTEFSKKTGDYPSLSATDIQVLALTYQLEAEFVGVSHLKQEPQKVKVSSSIQHPETPLHISGFHLPYKPKPPQETEKGHSACEPENLEFSSFMFWRNPLPNIDHELQELLIDRGEDVPSEEEEEEENGFEDRKDDSDDDGGGWITPSNIKQIQQELEQCDVPEDVRVGCLTTDFAMQNVLLQMGLHVLAVNGMLIREARSYILRCHGCFKTTSDMSRVFCSHCGNKTLKKVSVTVSDDGTLHMHFSRNPKVLNPRGLRYSLPTPKGGKYAINPHLTEDQRFPQLRLSQKARQKTNVFAPDYIAGVSPFVENDISSRSATLQVRDSTLGAGRRRLNPNASRKKFVKKR
B2: NOP2 (protein, UniProt P46087 1-812, looked up)
28S rRNA …: MGRKLDPTKEKRGPGRKARKQKGAETELVRFLPAVSDENSKRLSSRARKRAAKRRLGSVEAPKTNKSPEAKPLPGKLPKGISAGAVQTAGKKGPQSLFNAPRGKKRPAPGSDEEEEEEDSEEDGMVNHGDLWGSEDDADTVDDYGADSNSEDEEEGEALLPIERAARKQKAREAAAGIQWSEEETEDEEEEKEVTPESGPPKVEEADGGLQINVDEEPFVLPPAGEMEQDAQAPDLQRVHKRIQDIVGILRDFGAQREEGRSRSEYLNRLKKDLAIYYSYGDFLLGKLMDLFPLSELVEFLEANEVPRPVTLRTNTLKTRRRDLAQALINRGVNLDPLGKWSKTGLVVYDSSVPIGATPEYLAGHYMLQGASSMLPVMALAPQEHERILDMCCAPGGKTSYMAQLMKNTGVILANDANAERLKSVVGNLHRLGVTNTIISHYDGRQFPKVVGGFDRVLLDAPCSGTGVISKDPAVKTNKDEKDILRCAHLQKELLLSAIDSVNATSKTGGYLVYCTCSITVEENEWVVDYALKKRNVRLVPTGLDFGQEGFTRFRERRFHPSLRSTRRFYPHTHNMDGFFIAKFKKFSNSIPQSQTGNSETATPTNVDLPQVIPKSENSSQPAKKAKGAAKTKQQLQKQQHPKKASFQKLNGISKGADSELSTVPSVTKTQASSSFQDSSQPAGKAEGIREPKVTGKLKQRSPKLQSSKKVAFLRQNAPPKGTDTQTPAVLSPSKTQATLKPKDHHQPLGRAKGVEKQQLPEQPFEKAAFQKQNDTPKGPQPPTVSPIRSSRPPPAKRKKSQSRGNSQLLLS
B3: VAC14 (protein, UniProt Q08AM6 1-782, looked up)
Protein VAC14 homolog: MNPEKDFAPLTPNIVRALNDKLYEKRKVAALEIEKLVREFVAQNNTVQIKHVIQTLSQEFALSQHPHSRKGGLIGLAACSIALGKDSGLYLKELIEPVLTCFNDADSRLRYYACEALYNIVKVARGAVLPHFNVLFDGLSKLAADPDPNVKSGSELLDRLLKDIVTESNKFDLVSFIPLLRERIYSNNQYARQFIISWILVLESVPDINLLDYLPEILDGLFQILGDNGKEIRKMCEVVLGEFLKEIKKNPSSVKFAEMANILVIHCQTTDDLIQLTAMCWMREFIQLAGRVMLPYSSGILTAVLPCLAYDDRKKSIKEVANVCNQSLMKLVTPEDDELDELRPGQRQAEPTPDDALPKQEGTASGGPDGSCDSSFSSGISVFTAASTERAPVTLHLDGIVQVLNCHLSDTAIGMMTRIAVLKWLYHLYIKTPRKMFRHTDSLFPILLQTLSDESDEVILKDLEVLAEIASSPAGQTDDPGPLDGPDLQASHSELQVPTPGRAGLLNTSGTKGLECSPSTPTMNSYFYKFMINLLKRFSSERKLLEVRGPFIIRQLCLLLNAENIFHSMADILLREEDLKFASTMVHALNTILLTSTELFQLRNQLKDLKTLESQNLFCCLYRSWCHNPVTTVSLCFLTQNYRHAYDLIQKFGDLEVTVDFLAEVDKLVQLIECPIFTYLRLQLLDVKNNPYLIKALYGLLMLLPQSSAFQLLSHRLQCVPNPELLQTEDSLKAAPKSQKADSPSIDYAELLQHFEKVQNKHLEVRHQRSGRGDHLDRRVVL
B4: PRPF3 (protein, UniProt O43395 1-683, looked up)
U4/U6 small nuclear …: MALSKRELDELKPWIEKTVKRVLGFSEPTVVTAALNCVGKGMDKKKAADHLKPFLDDSTLRFVDKLFEAVEEGRSSRHSKSSSDRSRKRELKEVFGDDSEISKESSGVKKRRIPRFEEVEEEPEVIPGPPSESPGMLTKLQIKQMMEAATRQIEERKKQLSFISPPTPQPKTPSSSQPERLPIGNTIQPSQAATFMNDAIEKARKAAELQARIQAQLALKPGLIGNANMVGLANLHAMGIAPPKVELKDQTKPTPLILDEQGRTVDATGKEIELTHRMPTLKANIRAVKREQFKQQLKEKPSEDMESNTFFDPRVSIAPSQRQRRTFKFHDKGKFEKIAQRLRTKAQLEKLQAEISQAARKTGIHTSTRLALIAPKKELKEGDIPEIEWWDSYIIPNGFDLTEENPKREDYFGITNLVEHPAQLNPPVDNDTPVTLGVYLTKKEQKKLRRQTRREAQKELQEKVRLGLMPPPEPKVRISNLMRVLGTEAVQDPTKVEAHVRAQMAKRQKAHEEANAARKLTAEQRKVKKIKKLKEDISQGVHISVYRVRNLSNPAKKFKIEANAGQLYLTGVVVLHKDVNVVVVEGGPKAQKKFKRLMLHRIKWDEQTSNTKGDDDEESDEEAVKKTNKCVLVWEGTAKDRSFGEMKFKQCPTENMAREHFKKHGAEHYWDLALSESVLESTD
B5: NOP14 (protein, UniProt P78316 1-857, looked up)
Nucleolar protein 14: MAKAKKVGARRKASGAPAGARGGPAKANSNPFEVKVNRQKFQILGRKTRHDVGLPGVSRARALRKRTQTLLKEYKERDKSNVFRDKRFGEYNSNMSPEEKMMKRFALEQQRHHEKKSIYNLNEDEELTHYGQSLADIEKHNDIVDSDSDAEDRGTLSAELTAAHFGGGGGLLHKKTQQEGEEREKPKSRKELIEELIAKSKQEKRERQAQREDALELTEKLDQDWKEIQTLLSHKTPKSENRDKKEKPKPDAYDMMVRELGFEMKAQPSNRMKTEAELAKEEQEHLRKLEAERLRRMLGKDEDENVKKPKHMSADDLNDGFVLDKDDRRLLSYKDGKMNVEEDVQEEQSKEASDPESNEEEGDSSGGEDTEESDSPDSHLDLESNVESEEENEKPAKEQRQTPGKGLISGKERAGKATRDELPYTFAAPESYEELRSLLLGRSMEEQLLVVERIQKCNHPSLAEGNKAKLEKLFGFLLEYVGDLATDDPPDLTVIDKLVVHLYHLCQMFPESASDAIKFVLRDAMHEMEEMIETKGRAALPGLDVLIYLKITGLLFPTSDFWHPVVTPALVCLSQLLTKCPILSLQDVVKGLFVCCLFLEYVALSQRFIPELINFLLGILYIATPNKASQGSTLVHPFRALGKNSELLVVSAREDVATWQQSSLSLRWASRLRAPTSTEANHIRLSCLAVGLALLKRCVLMYGSLPSFHAIMGPLQALLTDHLADCSHPQELQELCQSTLTEMESQKQLCRPLTCEKSKPVPLKLFTPRLVKVLEFGRKQGSSKEEQERKRLIHKHKREFKGAVREIRKDNQFLARMQLSEIMERDAERKRKVKQLFNSLATQEGEWKALKRKKFKK
B6: PRPF31 (protein, UniProt Q8WWY3 1-499, looked up)
U4/U6 small nuclear …: MSLADELLADLEEAAEEEEGGSYGEEEEEPAIEDVQEETQLDLSGDSVKTIAKLWDSKMFAEIMMKIEEYISKQAKASEVMGPVEAAPEYRVIVDANNLTVEIENELNIIHKFIRDKYSKRFPELESLVPNALDYIRTVKELGNSLDKCKNNENLQQILTNATIMVVSVTASTTQGQQLSEEELERLEEACDMALELNASKHRIYEYVESRMSFIAPNLSIIIGASTAAKIMGVAGGLTNLSKMPACNIMLLGAQRKTLSGFSSTSVLPHTGYIYHSDIVQSLPPDLRRKAARLVAAKCTLAARVDSFHESTEGKVGYELKDEIERKFDKWQEPPPVKQVKPLPAPLDGQRKKRGGRRYRKMKERLGLTEIRKQANRMSFGEIEEDAYQEDLGFSLGHLGKSGSGRVRQTQVNEATKARISKTLQRTLQKQSVVYGGKSTIRDRSSGTASSVAFTPLQGLEIVNPQAAEKKVAEANQKYFSSMAEFLKVKGEKSGLMST
B7: LRRC40 (protein, UniProt Q9H9A6 1-602, looked up)
Leucine-rich …: MSRLKRIAGQDLRAGFKAGGRDCGTSVPQGLLKAARKSGQLNLSGRNLSEVPQCVWRINVDIPEEANQNLSFGATERWWEQTDLTKLIISNNKLQSLTDDLRLLPALTVLDIHDNQLTSLPSAIRELENLQKLNVSHNKLKILPEEITNLRNLKCLYLQHNELTCISEGFEQLSNLEDLDLSNNHLTTVPASFSSLSSLVRLNLSSNELKSLPAEINRMKRLKHLDCNSNLLETIPPELAGMESLELLYLRRNKLRFLPEFPSCSLLKELHVGENQIEMLEAEHLKHLNSILVLDLRDNKLKSVPDEIILLRSLERLDLSNNDISSLPYSLGNLHLKFLALEGNPLRTIRREIISKGTQEVLKYLRSKIKDDGPSQSESATETAMTLPSESRVNIHAIITLKILDYSDKQATLIPDEVFDAVKSNIVTSINFSKNQLCEIPKRMVELKEMVSDVDLSFNKLSFISLELCVLQKLTFLDLRNNFLNSLPEEMESLVRLQTINLSFNRFKMLPEVLYRIFTLETILISNNQVGSVDPQKMKMMENLTTLDLQNNDLLQIPPELGNCVNLRTLLLDGNPFRVPRAAILMKGTAAILEYLRDRIPT

Test system: Hsp90 complexes in K562 cell extract
Experiment: Nano-LC-MS/MS of PU-beads pull-downs
Assay type: binding
Conditions: protein identified in PU-beads pull-down of K562 cell extract, Prep 1; QSTAR-Elite QTof MS
Procedure, shortened: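 Proteins were identified by data-dependent nano LC-MS/MS (QTof, ESI) and Mascot searching (p<0.05), then reported as spectral counts and coverage via Scaffold. Inputs were PU-bead versus control-bead pull-downs from lysate pre-cleared with control beads overnight at 4 °C, eluted by boiling in 2% SDS.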

Row | Molecule | Number of Assigned Spectra, K562 Prep 1
1 | B1 | 5
2 | B2 | 0
3 | B3 | 5
4 | B4 | 3
5 | B5 | 9
6 | B6 | 3
7 | B7 | 4

Same assay, conditions: protein identified in PU-beads pull-down of K562 cell extract, Prep 2; QSTAR-Elite QTof MS

Row | Molecule | Number of Assigned Spectra, K562 Prep 2
8 | B1 | 0
9 | B2 | 0
10 | B3 | 2
11 | B4 | 0
12 | B5 | 2
13 | B6 | 2
14 | B7 | 3

Test system: Hsp90 complexes in Mia-PaCa-2 cell extract
Experiment: Nano-LC-MS/MS of PU-beads pull-downs
Assay type: binding, human
Conditions: protein identified in PU-beads pull-down of Mia-PaCa-2 cell extract; QSTAR-Elite QTof MS
Procedure, shortened: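 They came from PU-bead pull-downs of pre-cleared lysates (control beads, overnight, 4 °C), eluted by boiling in 2% SDS, gel-separated and run by data-dependent nano-ESI QTof MS/MS.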

Row | Molecule | Number of Assigned Spectra, Mia-Paca 2
15 | B1 | 0
16 | B2 | 7
17 | B3 | 0
18 | B4 | 0
19 | B5 | 0
20 | B6 | 0
21 | B7 | 0
